Source: publication PMC10343505 (Molecules, 2023)
Where a SMILES comes first, the peptide text is derived from it. The star is where a group is joined. Galloyl = O=C(c1cc(O)c(O)c(O)c1)*

Experiments:
[1] = Serum stability, mass spectrometry; type: in vitro ADME; settings: 100 µL of 1 mg/mL peptide + 100 µL fresh human serum, 37 °C, 20 min, ethanol precipitation, ESI mass spectrometry
Method: The GA-Hecate peptide has shown promising efficacy in antiviral assays, but its stability and target selectivity are yet to be determined. An understanding of these properties is crucial for the future progression of the peptide for therapeutic end use. To evaluate its stability, the Hecate peptide was incubated in freshly prepared human blood serum at 37 °C for 20 min. Mass spectrometry was then employed to identify breakdown products (metabolites) (Supplementary Figure S1).
Serum stability. A total of 100 µL of a solution containing 1 mg/mL of Hecate peptide was incubated at 37 °C with 100 µL of fresh human serum for 20 min. Then, 200 µL of 96% ethanol solution in water was added to the mixture, which was centrifuged, and the supernatant was analysed by mass spectrometry as described below. Water was used as a negative control for samples without serum (Supplementary Figure S1).
Mass spectrometry. Compound solutions were analysed by mass spectrometry using a Bruker spectrometer in electrospray positive mode with direct injection. Spectra were analysed with the help of Spectra Analysis Software using the relationship between molecular weight (m) and charge (z) (m/z). Fragments of Hecate were identified, and the amino acid sequence was determined by m/z comparison.

[2] = Water solubility of synthesized compounds; type: physicochemical; settings: concentration of 1 mg/mL in pure water
Method: The Hecate N-terminal fragments found in the serum stability experiment were selected to conjugate with gallic acid, like that in the GA-Hecate structure, where GA is coupled at the N-terminal region. Bioconjugates were synthesized using solid-phase methods and, after purification, their purity and identities were determined by high-performance liquid chromatography and mass spectrometry, respectively (see Supplementary Information). GA-metabolite 6 was not water-soluble and therefore was not considered for further biological evaluation.

fresh human serum = settings: 37 °C, up to 20 min
Vero cells [3] = assay: Cytotoxicity profile, WST-1 viability assay; type: cell-based, African green monkey; settings: 72 h; for CC50 (50% cytotoxic concentration in VERO cells): WST-1, non-linear regression of dose-response curve; for maximum non-toxic concentration: arbitrary threshold of 80% cell viability, range 80-0.62 µM
Method: To understand the effect of GA-Hecate and N-terminal-GA-metabolites on host cells, we tested them at a range of concentrations (80–0.62 µM) on Vero cells. Considering the arbitrary threshold of 80% cell viability, GA-Hecate, and GA-metabolite 5 reached their maximum non-toxic concentration at 40 µM (Figure 2).
Figure 2 Compound effects on Vero cells. Vero cells were incubated with different concentrations of GA-peptides. At 72 h post treatment, cell viability was determined by WST viability assay and the values are plotted as those relative to the control. Bars represent triplicate samples of three independent assays. *** p < 0.001. Comparison control vs. concentration. Water, the GA-peptide vehicle, was used as a negative control. Red dotted lines represent the arbitrary threshold of 80% cell viability.
The cytotoxicity profile of GA-Hecate and GA-metabolites. Peptide cytotoxicity profiles were measured using the WST-1 (4-[3-(4-iodophenyl)-2-(4-nitrophenyl)-2H-5-tetrazolio]-3-benzene disulfonate) cell proliferation reagent. A total of 24 h before treatment, 7 × 10^3 Vero cells/well were cultured with supplemented DMEM in a 96-multi-well plate and incubated at 37 °C in a humidified 5% CO2 incubator. The next day, the peptide-containing medium was added at the following final concentrations: 80; 40; 20; 10; 5; 2.5; 1.25, and 0.625 µM. After 72 h of incubation, peptide medium was removed, and WST-1 at a dilution of 1:10 was added to the wells and incubated for 30 min. Absorbance was measured at 450 nm, using a plate reader spectrophotometer.

ZIKV strain MP1751 = assay: Virucidal assay, micro-neutralization; type: cell-based, Zika virus; settings: virus pre-incubated 1 h, 72 hpi, Vero
Method: We next tested the virucidal effect of GA-Hecate and GA-metabolite 5 at concentrations of 20 µM and 40 µM on ZIKV strain MP1751 as described above. Again, we found a modest effect of GA-Hecate at 40 µM on ZIKV strain MP1751 replication. […] Given the latter result, the combination was not tested.
Sandwich ELISA to assess ZIKV infectivity (micro-neutralization). This assay was performed as described previously by Lopez-Chamaco et al., 2018. Briefly, at 72 h post-treatment (h.p.i.) the infected cell medium was removed, and cells were washed with PBS and then lysed with lysis buffer (20 mM Tris-HCl (pH 7.4), 20 mM iodoacetamide, 150 mM NaCl, 1 mM EDTA, and 0.5% Triton X-100) containing protease inhibitors. The lysis solution was transferred to an Immunolon® plate pre-coated with 3 µg/mL of purified pan-flavivirus MAb D1-4G2-4-15 (ATCC® HB112TM, herein referred to as 4G2) in PBS and incubated at room temperature for 1 h. […] After washing with PBST, 100 µL of TMB solution (Life Technologies) was added and the reaction stopped at 30 min with 50 µL of 0.5 M H2SO4 solution added and read at 450 nm using a plate reader spectrophotometer (ELISA).
Entry step assessment of GA-Hecate and GA-metabolites on Zika Virus. […] The levels of virus replication were determined using micro-neutralization as described above. […]

Vero cells [4] = assay: Cell toxicity during constant treatment (cell count, WST-1); type: cell-based, African green monkey; settings: 20 µM for 3 and 7 days
Method: We next assessed the effect, if any, of our peptides on cell growth, which in turn could affect virus replication. Vero cells in culture flasks were propagated in the presence or absence of 20 µM each of GA-peptides for 3 and 7 days. At this time point, viable cells were counted following incubation with trypsin using the automated cell counter Scepter^TM (Millipore), and cell shape was monitored using phase-contrast microscopy. Then, 7 × 10^3 cells were seeded per well of a 96-well plate, incubated for 24 h, and cell viability was measured using the WST-1 viability reagent (Figure 9c,d). […] This was consistent with the lower cell viability found for GA-Hecate-treated cells (65% of the control, Figure 9c).
Figure 9 Effect of peptides on Vero. (a) Cells were treated with 20 µM each of the peptides and cell counts determined at 3 and 7 days (a) during or (b) after treatment, as described in the text. (c,d) depict the cell viability counts from (a,b), respectively, shown as plots. Bars represent triplicate samples of three independent assays. *** p < 0.001. […]
GA-Hecate and GA-metabolite cell toxicity during constant treatment. […] Absorbance was measured at 450 nm, using a plate reader spectrophotometer. […] Cell images were obtained using a confocal microscope and the number of cells/mL was automatically measured using the automated cell counter Scepter^TM (Millipore). […]

Molecule	Water Solubility [2]	CC50 (50% cytotoxic concentration in VERO cells) (Vero cells [3])	maximum non-toxic concentration (Vero cells [3]; Vero cells, WST)	other results
CC(C)C[C@H](NC(=O)[C@H](C)NC(=O)[C@H](CCCCN)NC(=O)[C@H](CCCCN)NC(=O)[C@H](CC(C)C)NC(=O)[C@H](C)NC(=O)[C@H](CCCCN)NC(=O)[C@H](CCCCN)NC(=O)[C@H](CC(C)C)NC(=O)[C@H](CCCCN)NC(=O)[C@H](CCCCN)NC(=O)[C@H](CC(C)C)NC(=O)[C@H](C)NC(=O)[C@H](CCCCN)NC(=O)[C@H](CCCCN)NC(=O)[C@H](CC(C)C)NC(=O)[C@H](C)NC(=O)[C@H](CCCCN)NC(=O)[C@H](CC(C)C)NC(=O)[C@H](C)NC(=O)[C@H](CC(C)C)NC(=O)[C@H](C)NC(=O)[C@@H](N)Cc1ccccc1)C(N)=O [Hecate] (H-FALALKALKKALKKLKKALKKAL-NH2)				stability in human blood serum [1]: degraded in human blood serum into three major metabolites
CC(C)C[C@H](NC(=O)[C@H](C)NC(=O)[C@H](CCCCN)NC(=O)[C@H](CC(C)C)NC(=O)[C@H](C)NC(=O)[C@H](CC(C)C)NC(=O)[C@H](C)NC(=O)[C@H](Cc1ccccc1)NC(=O)c1cc(O)c(O)c(O)c1)C(=O)O [GA-Metabolite 6] (Galloyl-FALALKAL-OH)	Not soluble			
H3^+N-FALALKALKKALKKLKKALKKAL-CONH2				cleaved bond (fresh human serum): L-K, major, 20 min
CC(C)C[C@H](NC(=O)[C@H](C)NC(=O)[C@H](CCCCN)NC(=O)[C@H](CCCCN)NC(=O)[C@H](CC(C)C)NC(=O)[C@H](C)NC(=O)[C@H](CCCCN)NC(=O)[C@H](CCCCN)NC(=O)[C@H](CC(C)C)NC(=O)[C@H](CCCCN)NC(=O)[C@H](CCCCN)NC(=O)[C@H](CC(C)C)NC(=O)[C@H](C)NC(=O)[C@H](CCCCN)NC(=O)[C@H](CCCCN)NC(=O)[C@H](CC(C)C)NC(=O)[C@H](C)NC(=O)[C@H](CCCCN)NC(=O)[C@H](CC(C)C)NC(=O)[C@H](C)NC(=O)[C@H](CC(C)C)NC(=O)[C@H](C)NC(=O)[C@H](Cc1ccccc1)NC(=O)c1cc(O)c(O)c(O)c1)C(N)=O [GA-Hecate] (Galloyl-FALALKALKKALKKLKKALKKAL-NH2)	Soluble	>70.0 µM	40 µM	
CC(C)C[C@H](NC(=O)[C@H](C)NC(=O)[C@H](CCCCN)NC(=O)[C@H](CCCCN)NC(=O)[C@H](CC(C)C)NC(=O)[C@H](C)NC(=O)[C@H](CCCCN)NC(=O)[C@H](CC(C)C)NC(=O)[C@H](C)NC(=O)[C@H](CC(C)C)NC(=O)[C@H](C)NC(=O)[C@H](Cc1ccccc1)NC(=O)c1cc(O)c(O)c(O)c1)C(=O)O [GA-Metabolite 7] (Galloyl-FALALKALKKAL-OH)	Soluble	>80.0 µM		cytotoxic effect (Vero cells [3]; Vero cells, WST, all tested concentrations 80-0.62 µM): did not show any cytotoxic effect
CC(C)C[C@H](NC(=O)[C@H](CCCCN)NC(=O)[C@H](CCCCN)NC(=O)[C@H](CC(C)C)NC(=O)[C@H](C)NC(=O)[C@H](CCCCN)NC(=O)[C@H](CCCCN)NC(=O)[C@H](CC(C)C)NC(=O)[C@H](C)NC(=O)[C@H](CCCCN)NC(=O)[C@H](CC(C)C)NC(=O)[C@H](C)NC(=O)[C@H](CC(C)C)NC(=O)[C@H](C)NC(=O)[C@H](Cc1ccccc1)NC(=O)c1cc(O)c(O)c(O)c1)C(=O)O [GA-Metabolite 5] (Galloyl-FALALKALKKALKKL-OH)	Soluble	>70.0 µM	40 µM	virucidal inhibition (ZIKV strain MP1751; 20 µM): 98.5%; virucidal inhibition (ZIKV strain MP1751; 40 µM): 98.5%; cell viability (Vero cells [4]): did not have any effect on cell viability or cell shape
